Laboratory results from the supplement of paper PMC9732359.
± gives the uncertainty stated by the source.

Test: protein stability index of a GFP-peptide fusion (yeast GPS) (PSI 1-4); higher = more stable; sorted into four equal gates, so the index is relative within each strain
Summary of the method: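 The protein stability index combines read frequencies across sorting gates, each weighted by its gate number and then summed. To obtain those frequencies, a pooled yeast library of GFP fusions to tiled 17-residue yeast protein peptides, on a plasmid also expressing Cherry, was grown to mid-log phase in leucine-free medium. The cells were sorted into four equal gates by GFP/Cherry ratio before plasmid amplification by PCR and Illumina sequencing.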

| Sequence | protein stability index (doa10∆) | protein stability index (pdr5∆) | protein stability index (san1∆) | protein stability index (ubr1∆) |
| --- | --- | --- | --- | --- |
| DFVRNELNDIDTKIDQV [SMC3] | 3.19 ± 0.15 | 3.31 ± 0.11 | 3.12 ± 0.14 | 3.29 ± 0.13 |
| NEVYSAYVVNDTAPKPN [DLS1] | 3.47 ± 0.12 | 3.1 ± 0.12 | 2.95 ± 0.099 | 3.25 ± 0.066 |
| AALKKTRKAARPQKLRA [RPL6A] | 2.96 ± 0.071 | 3.09 ± 0.05 | 2.97 ± 0.043 | 3.16 ± 0.055 |
| DIPPPAIMKPYYLWTGK [RPO31] | 2.74 ± 0.068 | 2.77 ± 0.075 | 2.9 ± 0.074 | 2.79 ± 0.047 |
| NLLLSASRDKTLISWKL [ASC1] | 2.59 ± 0.071 | 2.79 ± 0.06 | 3.21 ± 0.05 | 2.2 ± 0.069 |
| GNISSSTVKKKDIVNIS [REC8] | 3.03 ± 0.063 | 3.07 ± 0.056 | 2.88 ± 0.044 | 3.02 ± 0.05 |
| KMDMICRNINRKHRNAQ [DIS3] | 2.2 ± 0.074 | 2.5 ± 0.11 | 2.37 ± 0.086 | 3.12 ± 0.12 |
| CLTGTVAARMFHILLKL [ECM29] | 2.42 ± 0.093 | 2.03 ± 0.096 | 2.74 ± 0.058 | 2.44 ± 0.069 |
| TSTGIIRCHREDCDLVI [POP5] | 2.67 ± 0.071 | 2.96 ± 0.077 | 2.71 ± 0.075 | 2.56 ± 0.066 |
| ELHKEGTISKLENKENG [SMC2] | 2.01 ± 0.12 | 2.61 ± 0.097 | 1.4 ± 0.076 | 1.62 ± 0.075 |
| TLVGGGAKITPEMIKRS [RRP43] | – | 3.29 ± 0.29 | 2.74 ± 0.22 | – |
| NDIKLFVDDTNVYRVTV [PRP8] | 2.58 ± 0.084 | 2.63 ± 0.091 | 2.43 ± 0.072 | 2.57 ± 0.053 |
| DSTDNENSGKEMDEKSY [LIN1] | – | 3.26 ± 0.14 | 2.88 ± 0.29 | 3.49 ± 0.14 |
| KETVEIGIVDYEAGASH [FAS1] | – | 2.92 ± 0.19 | – | 3.06 ± 0.14 |
| WKPNPSYDVENVNSRNQ [SRB5] | 2.96 ± 0.084 | 2.95 ± 0.14 | 3 ± 0.11 | 3.3 ± 0.085 |
| ESLYEPNLEPEDLFETI [PUP3] | 3.27 ± 0.12 | 3.09 ± 0.13 | 2.99 ± 0.11 | 3.01 ± 0.078 |
| ATTGGLFGSKPQGSTTN [YGR119C/NUP57] | 3.34 ± 0.1 | 3.37 ± 0.1 | 3.39 ± 0.12 | 3.55 ± 0.18 |
| NLYMLVTTCVYLACKVE [SSN8] | – | – | 1.62 ± 0.25 | – |
| MFGIRSGNNNGGFTNLT [YDL088C/ASM4] | 3.23 ± 0.085 | 3.41 ± 0.059 | 3.19 ± 0.054 | 3.4 ± 0.044 |
| DVLHPNRANVSKDELRE [RPS24A] | 3.35 ± 0.086 | 3.29 ± 0.11 | 3.19 ± 0.092 | 3.1 ± 0.086 |
| LPKVRIRTRRAAELLDK [DIS3] | 1.78 ± 0.096 | 1.48 ± 0.088 | 1.3 ± 0.17 | 1.28 ± 0.072 |
| DDQCMLITTYSKLSKNI [SIN4] | 1.97 ± 0.065 | 2.42 ± 0.076 | 1.87 ± 0.2 | 2.01 ± 0.038 |
| VPVRSFKGHSHIVQDCT [ASC1] | 2.5 ± 0.073 | 3.11 ± 0.064 | 2.91 ± 0.081 | 2.83 ± 0.049 |
| STVASALDTNGTSATTE [SIR4] | 2.2 ± 0.075 | 2.15 ± 0.065 | 2.91 ± 0.064 | 1.88 ± 0.045 |
| SCKDSQLKWAQNTIDDT [YIL149C/MLP2] | 2.15 ± 0.042 | 2.89 ± 0.057 | 2.65 ± 0.046 | 2.74 ± 0.053 |
| LRWFELKPKLYYEQFRP [SIR3] | 3.21 ± 0.074 | 2.98 ± 0.067 | 2.71 ± 0.077 | 3 ± 0.047 |

| Sequence | protein stability index (doa10∆) | protein stability index (pdr5∆) | protein stability index (san1∆) | protein stability index (ubr1∆) |
| --- | --- | --- | --- | --- |
| LSNFNADINLEESIRES [SIR3] | 3.16 ± 0.12 | 2.95 ± 0.12 | 2.75 ± 0.24 | 3.4 ± 0.094 |
| IIFASTKLGFTFTIKEF [SNU114] | 2.37 ± 0.078 | 2.44 ± 0.059 | 1.83 ± 0.074 | 2.56 ± 0.066 |
| LDTQLITLLPSSLKESS [SNF12] | 2.89 ± 0.24 | – | – | – |
| DLSANQRETMKERKLRE [SMC1] | 3.3 ± 0.13 | 3.06 ± 0.096 | 2.96 ± 0.091 | 3.42 ± 0.063 |
| YGIFGEGVEYSFLHVDD [POP8] | 2.25 ± 0.084 | 2.31 ± 0.072 | 1.92 ± 0.12 | 2.71 ± 0.049 |
| RVLETTLVEFETIKMKE [BRN1] | 2.12 ± 0.22 | 3.23 ± 0.14 | – | 1.34 ± 0.086 |
| SDNVSFEIQGVPPMKLA [YMR129W/POM152] | 2.8 ± 0.11 | 3.18 ± 0.083 | 3.05 ± 0.062 | 2.86 ± 0.088 |
| SDESIERLMTWKFKSLI [RRI2] | 2.26 ± 0.048 | 2.36 ± 0.042 | 2.11 ± 0.066 | 2.31 ± 0.031 |
| PLPPRIDPSVTMMTVEE [RPT1] | 2.16 ± 0.08 | 1.9 ± 0.076 | 2.12 ± 0.17 | 1.88 ± 0.062 |
| SDSEDSDAKEQHQSLSR [ESC2] | 2.81 ± 0.14 | 3.19 ± 0.15 | 3.04 ± 0.084 | 2.52 ± 0.083 |
| QNPENLLSEKILQYFEK [SIR3] | 2.83 ± 0.079 | 2.81 ± 0.086 | 2.8 ± 0.054 | 3.2 ± 0.072 |
| GGGHVSQVYAIRQAIAK [RPS16A] | 2.63 ± 0.05 | 2.85 ± 0.045 | 2.75 ± 0.053 | 2.62 ± 0.043 |
| SVSLVDEFPSELSDSDR [SIR4] | 2.68 ± 0.071 | 2.57 ± 0.058 | 2.64 ± 0.067 | 2.16 ± 0.057 |
| SDAQSNLGSNVRNSFPL [REC8] | 3.01 ± 0.07 | 3.12 ± 0.11 | 2.87 ± 0.082 | 3.07 ± 0.055 |
| EKPLILADYIVEVLLVN [NUT1] | 1.91 ± 0.047 | 1.49 ± 0.039 | 1.65 ± 0.17 | 1.32 ± 0.039 |
| ERTKQRTAKAYLKVSEE [PRP8] | 3.08 ± 0.093 | 3.12 ± 0.11 | 3.27 ± 0.056 | 3.34 ± 0.057 |
| ILDNINHNGSALLIEVF [ITC1] | 1.13 ± 0.096 | 1.22 ± 0.076 | 1.14 ± 0.13 | 1.22 ± 0.07 |
| MKYIQTEQQIEIPEGVT [RPL9B] | 2.4 ± 0.059 | 2.8 ± 0.063 | 2.39 ± 0.064 | 2.64 ± 0.053 |
| PKARQELPTQLALEIIV [RRP46] | 1.77 ± 0.046 | 1.76 ± 0.045 | 1.52 ± 0.11 | 2.07 ± 0.054 |
| ANSSTIRVTNSFALPFE [RPN8] | 2.46 ± 0.065 | 2.18 ± 0.05 | 2.73 ± 0.063 | 3.14 ± 0.039 |
| IDADSLEDIYTSAHEAI [RPL5] | 2.98 ± 0.097 | 3.02 ± 0.11 | 2.9 ± 0.1 | 3.13 ± 0.056 |
| LFHFEEDEGEELTDEYL [PRP8] | 3.52 ± 0.14 | 3.01 ± 0.09 | 3.44 ± 0.06 | 3 ± 0.12 |
| YVNVAISIYNMLPPKSV [SSN2] | 1.71 ± 0.049 | 1.82 ± 0.043 | 2.01 ± 0.062 | 2.12 ± 0.029 |
| EQEIENNGLPMKNKAET [ITC1] | 2.81 ± 0.065 | 3.06 ± 0.066 | 3 ± 0.045 | 2.9 ± 0.067 |
| YGSSPKLLATSTKIIML [SRB8] | 1.59 ± 0.065 | 1.7 ± 0.063 | 1.63 ± 0.16 | 1.24 ± 0.069 |
| GSAATSGFEFSKEDTLR [RPN1] | 2.61 ± 0.15 | 3.14 ± 0.16 | 2.72 ± 0.15 | 3.08 ± 0.13 |

| Sequence | protein stability index (doa10∆) | protein stability index (pdr5∆) | protein stability index (san1∆) | protein stability index (ubr1∆) |
| --- | --- | --- | --- | --- |
| EARLFNIWGTVRTNRFD [ECM29] | 2.61 ± 0.19 | 2.14 ± 0.15 | – | 2.32 ± 0.28 |
| NATEVQKESDAKNETNS [ITC1] | 2.67 ± 0.077 | 3.05 ± 0.11 | 2.67 ± 0.11 | 2.59 ± 0.2 |
| ADAGIELVDMAGAGEAN [MTR3] | 2.76 ± 0.11 | 2.69 ± 0.084 | 2.32 ± 0.1 | 2.9 ± 0.086 |
| LLFFNFSHSLTTILSFS [NUT1] | 1.41 ± 0.046 | 1.41 ± 0.034 | 1.46 ± 0.059 | 1.37 ± 0.033 |
| MSFIFPSYAERQSSDES [YML031W/NDC1] | 2.58 ± 0.051 | 2.04 ± 0.048 | 2.74 ± 0.066 | 2.5 ± 0.046 |
| SLHSNSFSLTVSKEQFL [YJL039C/NUP192] | 1.81 ± 0.065 | 1.8 ± 0.072 | 1.84 ± 0.12 | 1.43 ± 0.078 |
| KIAHGTTTLAFRFQGGI [PRE2] | 3.03 ± 0.095 | 3.11 ± 0.073 | 2.84 ± 0.067 | 3.1 ± 0.069 |
| GLMSANNIIAEGIEKMG [FAS2] | 1.68 ± 0.12 | 1.74 ± 0.098 | 1.58 ± 0.18 | 1.48 ± 0.084 |
| IKEENDMENMADEQKRS [ARP7] | 3.54 ± 0.17 | 3.48 ± 0.15 | 3.24 ± 0.095 | 3.19 ± 0.24 |
| ADVLVDRVVSSDSLDIA [SRP72] | 1.95 ± 0.056 | 1.58 ± 0.072 | 1.42 ± 0.12 | 1.81 ± 0.081 |
| HPKIVKKHTKKFKRHHS [RPL32] | 2.74 ± 0.054 | 3.06 ± 0.059 | 2.66 ± 0.045 | 3.02 ± 0.037 |
| KSKAEELTQVPSARQKY [UBP6] | 2.19 ± 0.14 | 2.81 ± 0.12 | 2.38 ± 0.14 | 2.37 ± 0.16 |
| IRNARSIRAEAVAASST [POP1] | 3.13 ± 0.24 | 2.54 ± 0.23 | 2.5 ± 0.14 | 2.19 ± 0.1 |
| LHDTQIEGKLHMATALQ [RPN10] | 2.48 ± 0.22 | 2.37 ± 0.2 | – | 2.38 ± 0.23 |
| EDEEKILDNTENYDDTE [DSN1] | 3.37 ± 0.088 | 3.33 ± 0.078 | 3.4 ± 0.058 | 3.44 ± 0.072 |
| SKLPDPERWLPLRDRST [SRP72] | 2.09 ± 0.067 | 2.91 ± 0.068 | 2.55 ± 0.077 | 2.46 ± 0.058 |
| PAGTSLFGNNAGNTTTG [YGL172W/NUP49] | 2.98 ± 0.16 | 3.24 ± 0.088 | 2.88 ± 0.11 | 3.24 ± 0.084 |
| VRNACKRLIAHDWLNAL [YCG1] | 2.74 ± 0.081 | 2.97 ± 0.1 | 2.83 ± 0.075 | 3.19 ± 0.064 |
| MASGSTTFTKVAAKWNT [PRP8] | 2.58 ± 0.072 | 2.52 ± 0.069 | 2.51 ± 0.084 | 2.93 ± 0.07 |
| TSAASGDAAPAEEAAAE [RPP0] | – | 3.44 ± 0.13 | 3.13 ± 0.14 | 3.34 ± 0.11 |
| QPSDVKPTSHKQLQQPK [SIR4] | 2.98 ± 0.096 | 3.15 ± 0.088 | 2.99 ± 0.084 | 3.06 ± 0.076 |
| NYNSTSRSTEKKNDMNT [SIR4] | 2.33 ± 0.061 | 2.48 ± 0.058 | 2.61 ± 0.079 | 2.55 ± 0.049 |
| YKGMASNDERIVKRLYE [BRR2] | 3.33 ± 0.085 | 3.47 ± 0.083 | 3.31 ± 0.052 | 3.51 ± 0.047 |
| TELLNIYDSEDPQQVFD [RPN3] | 2.88 ± 0.1 | 3.13 ± 0.078 | 3.15 ± 0.084 | 2.87 ± 0.058 |
